# In US20220315909:
# Sequence of Recombinant Mouse u-Plasminogen Activator/Urokinase (chain, as listed by the source): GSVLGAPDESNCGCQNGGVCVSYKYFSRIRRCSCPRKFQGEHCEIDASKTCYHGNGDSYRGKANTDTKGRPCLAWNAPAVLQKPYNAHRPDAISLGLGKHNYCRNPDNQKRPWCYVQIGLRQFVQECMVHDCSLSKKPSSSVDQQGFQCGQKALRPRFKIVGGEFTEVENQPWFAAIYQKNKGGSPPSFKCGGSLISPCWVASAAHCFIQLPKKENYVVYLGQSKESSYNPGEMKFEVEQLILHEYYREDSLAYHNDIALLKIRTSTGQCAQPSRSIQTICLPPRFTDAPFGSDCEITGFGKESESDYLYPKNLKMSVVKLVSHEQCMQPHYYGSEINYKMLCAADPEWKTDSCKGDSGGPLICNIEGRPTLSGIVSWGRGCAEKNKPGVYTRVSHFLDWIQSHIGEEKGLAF
substance,measurement,setting,value
Recombinant Mouse u-Plasminogen Activator/Urokinase,"cleavage ratio (PAR) on peptide array, mouse uPA 1000 nM",SEQ ID NO 17203,also showed higher cleavage ratios for mouse uPA than the sequence shown as SEQ ID NO: 3
same,"cleavage ratio (PAR) on peptide array, mouse uPA 1000 nM",SEQ ID NO 17994,also showed higher cleavage ratios for mouse uPA than the sequence shown as SEQ ID NO: 3
same,"cleavage ratio (PAR) on peptide array, mouse uPA 1000 nM",SEQ ID NO 17997,also showed higher cleavage ratios for mouse uPA than the sequence shown as SEQ ID NO: 3
same,"cleavage ratio (PAR) on peptide array, mouse uPA 1000 nM",SEQ ID NO 17202,also showed higher cleavage ratios for mouse uPA than the sequence shown as SEQ ID NO: 3
same,"cleavage ratio (PAR) on peptide array, mouse uPA 1000 nM",SEQ ID NO 17995,also showed higher cleavage ratios for mouse uPA than the sequence shown as SEQ ID NO: 3
same,"cleavage ratio (PAR) on peptide array, mouse uPA 1000 nM",SEQ ID NOs: 5-3204,"showed higher cleavage ratios than the sequence shown as SEQ ID NO: 2 for all the cleavages by human uPA, human MT-SP1, and mouse uPA"
same,"cleavage ratio (PAR) on peptide array, mouse uPA 1000 nM",SEQ ID NO 17996,also showed higher cleavage ratios for mouse uPA than the sequence shown as SEQ ID NO: 3
same,"cleavage ratio (PAR) on peptide array, mouse uPA 1000 nM",SEQ ID NO 17998,also showed higher cleavage ratios for mouse uPA than the sequence shown as SEQ ID NO: 3
same,"cleavage ratio (PAR) on peptide array, mouse uPA 1000 nM",SEQ ID NO 17999,also showed higher cleavage ratios for mouse uPA than the sequence shown as SEQ ID NO: 3
Recombinant Human u-Plasminogen Activator/Urokinase,"cleavage ratio (PAR) on peptide array, human uPA 1000 nM",SEQ ID NO 17994,showed higher cleavage ratios than the sequence shown as SEQ ID NO: 3 for both the cleavages by human uPA and human MT-SP1
same,"cleavage ratio (PAR) on peptide array, human uPA 1000 nM",SEQ ID NO 18002,showed higher cleavage ratios than the sequence shown as SEQ ID NO: 3 for both the cleavages by human uPA and human MT-SP1
same,"cleavage ratio (PAR) on peptide array, human uPA 1000 nM",SEQ ID NO 17997,showed higher cleavage ratios than the sequence shown as SEQ ID NO: 3 for both the cleavages by human uPA and human MT-SP1
same,"cleavage ratio (PAR) on peptide array, human uPA 1000 nM",SEQ ID NO 17995,showed higher cleavage ratios than the sequence shown as SEQ ID NO: 3 for both the cleavages by human uPA and human MT-SP1
same,"cleavage ratio (PAR) on peptide array, human uPA 1000 nM",SEQ ID NO 18003,showed higher cleavage ratios than the sequence shown as SEQ ID NO: 3 for both the cleavages by human uPA and human MT-SP1
same,"cleavage ratio (PAR) on peptide array, human uPA 1000 nM",SEQ ID NO 17996,showed higher cleavage ratios than the sequence shown as SEQ ID NO: 3 for both the cleavages by human uPA and human MT-SP1
same,"cleavage ratio (PAR) on peptide array, human uPA 1000 nM",SEQ ID NO 18000,showed higher cleavage ratios than the sequence shown as SEQ ID NO: 3 for both the cleavages by human uPA and human MT-SP1
same,"cleavage ratio (PAR) on peptide array, human uPA 1000 nM",SEQ ID NO 18001,showed higher cleavage ratios than the sequence shown as SEQ ID NO: 3 for both the cleavages by human uPA and human MT-SP1
same,"cleavage ratio (PAR) on peptide array, human uPA 1000 nM",SEQ ID NO 17998,showed higher cleavage ratios than the sequence shown as SEQ ID NO: 3 for both the cleavages by human uPA and human MT-SP1
same,"cleavage ratio (PAR) on peptide array, human uPA 1000 nM",SEQ ID NOs: 5-17201,showed higher cleavage ratios than the sequence shown as SEQ ID NO: 2 for both the cleavages by human uPA and human MT-SP1
same,"cleavage ratio (PAR) on peptide array, human uPA 1000 nM",SEQ ID NO 17999,showed higher cleavage ratios than the sequence shown as SEQ ID NO: 3 for both the cleavages by human uPA and human MT-SP1
same,"cleavage ratio (PAR) on peptide array, human uPA 1000 nM",SEQ ID NOs: 17202-17993,showed higher cleavage ratios than the sequence shown as SEQ ID NO: 3 for both the cleavages by human uPA and human MT-SP1
